We go through eleven molecules from publication PMC11588112 (Proceedings of the National Academy of Sciences of the …, 2024).

For this assay, the target named is mumps hemagglutinin neuraminidase (HN) globular head domain, monomeric (Mumps virus genotype G (strain not …)).

B1: F11 (antibody, V domains shown)
VH: EVQLQQSGPELVKPGASVKISCKASGYTFTDYYMNWVKQSHGKSLEWVGDINPNNGVTRYNQNFKGKGTMTVDKSSRTAYMEFRSLTSEDSAVYYCGRLGYYGKYKDGMDYWGQGTSVTVSS
VL: DIQMTQSPASLSVSVGETVTITCRASDNIYSNLAWYQQRQGKSPQLLVYAATNLLDGVPSRFSGSGSGTHYSLKINSLQSEDFGTYYCQHFWGTPFTFGSGTKLEIK
Turning to B1, the binding result was “binds”.

B2: G6 (antibody, V domains shown)
VH: QIQLVQSGPELKKPGETVKISCKASGYTFTPYGLSWVKQAPGKVLKWMGWINTSSGVPTYADDFKGRFAFSLETSVSTAYLQINNLKNEDTATYFCARISVSFYYGLYFDYWGQGTTLTVSS
VL: DIQMTQSPSSMSVSLGDTVSITCHASQGIANNIGWLQQKPGKSFKGLLYHGSTLEDGVPSRFSGSGSGAAYSLTISSLESEDFADYYCIQYAQLPYTFGGGTKLEIK
B2: the binding result was “binds”.

B3: C9 (antibody, V domains shown)
VH: EVKLLQSGGGLVQPGGSLKLSCAASGIDFSRYWMGWVRRAPGKGLEWIGEINPDSSTINYAPSLKDKFIISRDNAKNTLYLQMIKVRSEDTALYYCARYWADWFFDVWGTGTTVTVSS
VL: DIQMTQSSSYLSVSLGGRVTITCTASDHIDNWLAWYQQKPGNAPRLLLSGATSLDTGVPSRFSGSGSGKDFTLSITSLQTEDVATYYCQQYWSTPYTFGGGTKLEIK
Turning to B3, the binding result is “binds”.

B4: G9 (antibody, V domains shown)
VH: EVQLQQSGPEQVRTGASVKISCKASGYFFTGYYLHWVRQSHGKSLEWIGYIRSYNGATKYNQKFEGKTTFTVDTSSSTAYMQINSLTSEDSAVYYCAKDEDSGYAMDYWGQGTSVTVSS
VL: DIVMTQSHKFMSTLVGDRVAITCKASQDVSSAVAWYQQKPGQSPKLLIYSASYRFTGVPDRFTGSGSGTDFTFTITTVQTEDLAIYFCQQHYSLPWTFGGGTKLEIK
Consider B4, for which the binding result was “binds”.

B5: B12 (antibody, V domains shown)
VH: EVQLQQSGPELVKPGASVKIPCKASGYTFTEYNMDWVKQSHGKSLEWIGDINPNNGDTIYNQKFKGKATLTVDKASSTAYMELRSLTSEDTAVYYCARGTLYGSNYYFVMDYWGQGTSVTVSS
VL: DIQITQSPASLSASVGETVTITCGASENIYGALNWFQRKQGKSPQLLIYGATTLADGMSSRFSGNGSGRQYSLKISGLHPDDVATYYCQNVLSIPWTFGGGTKLEIK
For the molecule B5, the binding result is “binds”.

B6: C7 (antibody, V domains shown)
VH: QITQKSEGSGILQPSQTLSLTCSFSGFSLNISGMGVGWIRQPSGKGLEWLAHIWWDDVKRYNPALKSRLTISKDTSSRQVFLKIASVDTADTATYYCVRIDNSYAMDYWGQGTSVTVSS
VL: DIVLTQSPASLAVSLGQRATISCRASKSVSTSGYSYVHWFQQKPGQPPKLLIYLASNLESGVPARFSGSGSGTDFTLNIHPVEEEDAATYYCQHSRELPWTFGGGTKLEIK
For B6, the binding result is given as “binds”.

B7: B11 (antibody, V domains shown)
VH: EVQLQQSGAEPVRPGTSVKFSCKASGYTLTDYWMHWVKQRPGQGLDWIGVIDPSDSYTTYNQKFKGKATLTVDKSSSTAYMQLSSLTSEDSAVYYCARGPTLYYFDYWGQGTTLTVSS
VL: DIVMTQPQKFMSTSVGDRVSVTCKASQNVGTNVVWCQQKPGQSPKALIYSASYLYSGVPDRFTGTGSGTDFTLTISNVQSEDLAEYFCQQYNNYPLTFGAGTKLELK
In the case of B7, the binding result is “binds”.

B8: D11 (antibody, V domains shown)
VH: EVQLQQSGAELVRPGTSVKLSCKTSGYTFISYWIHWVKQRPGQGLEWIGVIDPSDSYTNYNQNFKGKVTLTVDTSSSTAYMQLSSLTSEDSAVYYCARFDYDDYWGQGTTLTVSS
VL: QIVLTQSPAIMSASPGEKVTMTCSASSSVTYMQWYKQKSGTSPKRWIYDTSKLASGVPARFSGSGSGTSYSLTISSMEAEDAATYYCQQWNTNPWTFGGGTKLEIK
On to B8, for which the binding result is “binds”.

B9: E7 (antibody, V domains shown)
VH: EVKLVESGGGLVQPGGSLRLSCATSGFTFTDYYMSWVRQTPGKALEWLGFIRNKPNGYTTEYNASVKGRFTISRDNSRSVLYLQMNVLRAEDSATYFCARVPHDYGFFDYWGQGTTLTVSS
VL: DVLMTQSPLSLPVSLGDQASISCRSSQSIEHINGHTYLEWYLQKPGQSPKVLIYKVSNRFSGVPDRFSGSGSGTDFTLRISRVEAEDLGVYYCFQASHLPYTFGGGTKLEIK
Regarding B9, the binding result is listed as “binds”.

B10: E10 (antibody, V domains shown)
VH: EVQLQQSGAELVRPGSSVKLSCKASGYTFTWYWIDWMKQRPGQGLEWIGNIYPSDSEVQYNQKFKDRATLTLDKSSTTAYMQLSSLTSEDSAVYYCARRLYDYFALDFWGQGTSVTVSS
VL: DIVMTQAAFSNPVTLGTSASISCRSSKSLQHSNGITYLYWYLQKPGQSPQLLIYQMSKFASGVPDRFSSSGSGTDFTLRISRVEAEDVGVYYCAQNLELPWTFGGGTKLEIK
As for B10, the binding result is listed as “binds”.

B11: F10 (antibody, V domains shown)
VH: EVQLQQSGAELVRPGSSVKLSCKASGYTFTWYWIDWLKQRPGQGLEWIGNIYPSDSAVQYNQNFKDRATLTLDTSSTTAYLHLSSLTSEDSAVYYCARRIYDYFALDFWGQGTSVTVSS
VL: DIVMTQAAFSHPVTLGTSASISCRSSKSLQHSNGITFLYWYLQKPGQSPQLLIYQMSKLASGIPDRFSSSGSGTDFTLRISRVEAEDVGVYYCAQNLELPWTFGGGTKLEIK
Consider B11, for which the binding result is “binds”.
